Data published in publication PMC7159914.

Experiments:
[1] = target: rotavirus (RV) A VP3, full-length recombinant (rotavirus A); assay: SEC + AUC
[2] = target: rotavirus (RV) A VP3, full-length recombinant (rotavirus A); assay: cryo-EM structure
[3] = target: rotavirus (RV) A VP3, full-length recombinant (rotavirus A); assay: crystal structure

Measured: stoichiometry N

rotavirus (RV) A VP3, full-length recombinant (enzyme)
4: all assays above
